Experimental data published in article PMC3413154.

Experiments:
Experiment in all cases: EMSA
[1] = molecular target: T1, L2 NTase domain (Trypanosoma brucei, UniProt P86925 21-285)
T1 sequence: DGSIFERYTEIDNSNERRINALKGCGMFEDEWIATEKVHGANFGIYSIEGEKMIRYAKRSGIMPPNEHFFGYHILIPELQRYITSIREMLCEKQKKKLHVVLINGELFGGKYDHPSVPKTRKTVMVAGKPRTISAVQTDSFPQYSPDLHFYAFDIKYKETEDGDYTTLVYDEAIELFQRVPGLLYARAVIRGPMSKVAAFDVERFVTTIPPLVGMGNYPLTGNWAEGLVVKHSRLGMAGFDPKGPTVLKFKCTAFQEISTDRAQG

[2] = molecular target: T2, A1 R731E;L2 RNA-editing ligase (full length, mature) (Trypanosoma brucei;Trypanosoma brucei, UniProt Q95W15;P86925 196-762;21-416, R731E|)
T2 sequence 1: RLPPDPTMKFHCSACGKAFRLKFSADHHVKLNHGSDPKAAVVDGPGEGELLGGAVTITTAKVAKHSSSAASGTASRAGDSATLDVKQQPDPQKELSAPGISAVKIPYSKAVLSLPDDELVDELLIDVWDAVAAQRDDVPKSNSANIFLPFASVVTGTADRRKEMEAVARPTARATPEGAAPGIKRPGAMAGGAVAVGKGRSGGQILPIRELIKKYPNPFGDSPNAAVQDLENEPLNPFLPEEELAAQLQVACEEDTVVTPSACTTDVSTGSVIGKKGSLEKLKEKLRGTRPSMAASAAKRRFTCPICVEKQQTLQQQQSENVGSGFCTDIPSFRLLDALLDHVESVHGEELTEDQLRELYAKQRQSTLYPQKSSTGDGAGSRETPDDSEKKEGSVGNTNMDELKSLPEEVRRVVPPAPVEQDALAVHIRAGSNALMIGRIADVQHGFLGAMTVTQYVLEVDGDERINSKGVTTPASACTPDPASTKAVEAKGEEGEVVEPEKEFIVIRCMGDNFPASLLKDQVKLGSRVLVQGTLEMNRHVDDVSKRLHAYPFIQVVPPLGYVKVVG
T2 sequence 2: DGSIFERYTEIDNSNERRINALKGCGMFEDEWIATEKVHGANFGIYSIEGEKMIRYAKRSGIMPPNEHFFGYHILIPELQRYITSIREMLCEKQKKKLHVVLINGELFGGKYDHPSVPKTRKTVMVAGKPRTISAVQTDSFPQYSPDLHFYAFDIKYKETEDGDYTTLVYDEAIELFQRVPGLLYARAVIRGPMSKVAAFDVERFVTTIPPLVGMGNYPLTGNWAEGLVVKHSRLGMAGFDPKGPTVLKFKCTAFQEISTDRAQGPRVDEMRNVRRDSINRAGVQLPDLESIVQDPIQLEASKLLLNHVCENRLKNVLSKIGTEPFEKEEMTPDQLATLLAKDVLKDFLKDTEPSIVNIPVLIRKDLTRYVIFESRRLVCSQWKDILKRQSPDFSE

[3] = molecular target: T3, A1Δ (L23 deletion);L2 RNA-editing ligase (full length, mature) (Trypanosoma brucei;Trypanosoma brucei, UniProt Q95W15;P86925 196-657+=GASG+696-762;21-416, internal_change|)
T3 sequence 1: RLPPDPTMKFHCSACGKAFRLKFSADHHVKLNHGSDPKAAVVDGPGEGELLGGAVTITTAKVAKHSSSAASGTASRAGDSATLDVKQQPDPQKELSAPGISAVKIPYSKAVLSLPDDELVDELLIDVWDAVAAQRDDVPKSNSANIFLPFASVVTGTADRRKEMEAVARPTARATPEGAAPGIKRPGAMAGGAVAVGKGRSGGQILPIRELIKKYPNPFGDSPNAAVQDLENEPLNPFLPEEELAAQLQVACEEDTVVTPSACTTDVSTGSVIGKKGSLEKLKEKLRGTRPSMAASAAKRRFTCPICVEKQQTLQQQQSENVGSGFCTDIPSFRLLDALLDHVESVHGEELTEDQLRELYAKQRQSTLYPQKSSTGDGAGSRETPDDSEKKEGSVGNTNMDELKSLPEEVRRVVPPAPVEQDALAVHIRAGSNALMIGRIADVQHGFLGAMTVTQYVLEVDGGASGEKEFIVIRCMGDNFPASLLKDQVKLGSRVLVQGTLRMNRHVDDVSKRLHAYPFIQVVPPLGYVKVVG
T3 sequence 2: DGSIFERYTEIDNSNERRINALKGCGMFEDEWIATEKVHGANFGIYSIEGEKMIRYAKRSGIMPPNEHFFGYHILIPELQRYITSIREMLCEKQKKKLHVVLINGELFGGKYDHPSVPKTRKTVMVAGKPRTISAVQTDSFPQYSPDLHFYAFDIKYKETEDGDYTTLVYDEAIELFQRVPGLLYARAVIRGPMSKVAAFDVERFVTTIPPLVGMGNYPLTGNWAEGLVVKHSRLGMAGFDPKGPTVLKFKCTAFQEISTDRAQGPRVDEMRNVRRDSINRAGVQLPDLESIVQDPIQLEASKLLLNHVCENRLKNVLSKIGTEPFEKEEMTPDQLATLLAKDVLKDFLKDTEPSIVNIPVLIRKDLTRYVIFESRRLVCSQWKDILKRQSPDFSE

[4] = molecular target: T4, A1 R703E;L2 RNA-editing ligase (full length, mature) (Trypanosoma brucei;Trypanosoma brucei, UniProt Q95W15;P86925 196-762;21-416, R703E|)
T4 sequence 1: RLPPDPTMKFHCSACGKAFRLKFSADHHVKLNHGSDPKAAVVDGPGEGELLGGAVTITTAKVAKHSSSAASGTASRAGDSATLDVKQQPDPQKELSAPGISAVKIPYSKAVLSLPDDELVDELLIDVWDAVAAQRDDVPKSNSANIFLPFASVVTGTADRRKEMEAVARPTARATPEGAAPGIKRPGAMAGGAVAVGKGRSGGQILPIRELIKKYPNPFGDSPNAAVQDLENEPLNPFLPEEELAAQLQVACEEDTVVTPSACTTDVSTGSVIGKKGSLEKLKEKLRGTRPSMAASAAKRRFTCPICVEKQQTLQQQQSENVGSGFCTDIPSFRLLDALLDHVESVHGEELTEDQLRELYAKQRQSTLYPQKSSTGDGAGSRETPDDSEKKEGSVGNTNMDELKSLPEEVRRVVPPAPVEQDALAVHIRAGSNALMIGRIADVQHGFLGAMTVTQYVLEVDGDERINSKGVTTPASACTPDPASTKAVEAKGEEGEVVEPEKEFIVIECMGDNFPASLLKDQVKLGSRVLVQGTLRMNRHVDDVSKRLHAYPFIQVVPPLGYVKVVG
T4 sequence 2: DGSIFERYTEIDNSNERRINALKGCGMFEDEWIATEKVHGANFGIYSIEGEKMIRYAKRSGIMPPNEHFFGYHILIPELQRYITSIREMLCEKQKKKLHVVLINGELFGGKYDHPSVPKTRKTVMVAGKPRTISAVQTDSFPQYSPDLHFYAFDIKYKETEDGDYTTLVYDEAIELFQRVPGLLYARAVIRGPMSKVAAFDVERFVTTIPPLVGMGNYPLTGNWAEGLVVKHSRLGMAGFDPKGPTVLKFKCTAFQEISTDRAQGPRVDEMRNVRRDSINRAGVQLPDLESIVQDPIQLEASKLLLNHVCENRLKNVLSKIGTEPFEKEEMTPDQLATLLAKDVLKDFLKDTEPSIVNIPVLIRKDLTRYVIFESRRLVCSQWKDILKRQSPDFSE

[5] = molecular target: T5, A1 R734E;L2 RNA-editing ligase (full length, mature) (Trypanosoma brucei;Trypanosoma brucei, UniProt Q95W15;P86925 196-762;21-416, R734E|)
T5 sequence 1: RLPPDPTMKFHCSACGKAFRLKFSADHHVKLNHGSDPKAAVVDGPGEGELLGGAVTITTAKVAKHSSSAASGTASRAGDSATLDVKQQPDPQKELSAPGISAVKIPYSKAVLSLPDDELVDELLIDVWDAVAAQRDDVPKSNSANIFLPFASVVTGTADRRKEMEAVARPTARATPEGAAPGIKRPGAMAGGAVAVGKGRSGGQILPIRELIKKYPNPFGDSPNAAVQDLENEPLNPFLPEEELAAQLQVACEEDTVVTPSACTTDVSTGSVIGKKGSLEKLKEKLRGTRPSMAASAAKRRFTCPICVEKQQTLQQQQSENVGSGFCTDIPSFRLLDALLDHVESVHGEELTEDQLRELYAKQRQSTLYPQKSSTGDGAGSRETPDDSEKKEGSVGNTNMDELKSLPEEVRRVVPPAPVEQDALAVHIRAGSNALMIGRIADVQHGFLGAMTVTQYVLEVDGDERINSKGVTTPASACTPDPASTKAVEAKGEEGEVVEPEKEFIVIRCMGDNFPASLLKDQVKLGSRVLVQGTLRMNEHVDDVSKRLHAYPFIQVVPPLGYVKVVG
T5 sequence 2: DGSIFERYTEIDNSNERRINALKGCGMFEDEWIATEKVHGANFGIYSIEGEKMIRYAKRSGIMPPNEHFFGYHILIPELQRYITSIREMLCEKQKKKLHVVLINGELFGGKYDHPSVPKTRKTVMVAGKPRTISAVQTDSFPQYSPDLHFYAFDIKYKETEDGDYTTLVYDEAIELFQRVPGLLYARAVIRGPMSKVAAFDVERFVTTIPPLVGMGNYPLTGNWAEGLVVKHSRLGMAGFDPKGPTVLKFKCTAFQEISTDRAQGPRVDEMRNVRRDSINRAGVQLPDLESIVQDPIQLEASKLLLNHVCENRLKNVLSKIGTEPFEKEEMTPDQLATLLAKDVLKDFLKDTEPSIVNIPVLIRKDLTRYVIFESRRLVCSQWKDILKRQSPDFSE

[6] = molecular target: T6, A1 L2BD;L2 RNA-editing ligase (full length, mature) (Trypanosoma brucei;Trypanosoma brucei, UniProt Q95W15;P86925 196-331;21-416, |)
T6 sequence 1: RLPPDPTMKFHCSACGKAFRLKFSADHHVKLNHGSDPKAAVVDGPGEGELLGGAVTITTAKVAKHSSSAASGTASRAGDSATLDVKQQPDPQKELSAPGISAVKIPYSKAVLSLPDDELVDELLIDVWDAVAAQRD
T6 sequence 2: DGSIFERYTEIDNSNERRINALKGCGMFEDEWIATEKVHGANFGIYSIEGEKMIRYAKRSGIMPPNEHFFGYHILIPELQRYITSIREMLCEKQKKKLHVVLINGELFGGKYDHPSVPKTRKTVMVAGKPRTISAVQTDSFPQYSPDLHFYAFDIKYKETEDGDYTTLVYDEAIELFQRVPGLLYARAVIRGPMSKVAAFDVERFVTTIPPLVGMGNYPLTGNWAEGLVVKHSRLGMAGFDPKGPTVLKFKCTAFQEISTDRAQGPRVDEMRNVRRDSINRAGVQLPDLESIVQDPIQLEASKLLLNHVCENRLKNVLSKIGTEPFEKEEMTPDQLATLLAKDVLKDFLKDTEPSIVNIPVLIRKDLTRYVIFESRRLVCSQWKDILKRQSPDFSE

[7] = molecular target: T7, A1 (full length, mature);L2 A1BD (Trypanosoma brucei;Trypanosoma brucei, UniProt Q95W15;P86925 196-762;308-416, |)
T7 sequence 1: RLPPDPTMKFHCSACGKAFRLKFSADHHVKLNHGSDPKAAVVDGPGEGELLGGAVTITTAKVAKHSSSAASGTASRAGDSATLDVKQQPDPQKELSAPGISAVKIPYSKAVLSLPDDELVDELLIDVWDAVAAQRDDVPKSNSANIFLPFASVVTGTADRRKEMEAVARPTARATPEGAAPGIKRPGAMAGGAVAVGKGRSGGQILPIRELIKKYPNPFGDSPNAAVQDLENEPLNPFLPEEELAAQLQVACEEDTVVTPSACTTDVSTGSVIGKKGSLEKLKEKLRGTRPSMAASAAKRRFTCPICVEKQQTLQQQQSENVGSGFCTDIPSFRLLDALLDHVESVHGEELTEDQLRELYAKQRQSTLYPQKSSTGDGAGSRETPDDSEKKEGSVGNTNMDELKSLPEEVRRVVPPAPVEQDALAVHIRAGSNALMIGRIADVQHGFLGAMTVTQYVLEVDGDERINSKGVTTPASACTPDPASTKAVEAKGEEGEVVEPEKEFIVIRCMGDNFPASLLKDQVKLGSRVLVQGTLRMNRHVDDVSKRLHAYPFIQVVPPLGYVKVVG
T7 sequence 2: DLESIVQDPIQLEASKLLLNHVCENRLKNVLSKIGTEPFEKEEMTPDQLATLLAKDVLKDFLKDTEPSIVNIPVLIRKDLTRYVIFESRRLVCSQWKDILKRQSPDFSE

[8] = molecular target: T8, A1 (full length, mature);L2 RNA-editing ligase (full length, mature) (Trypanosoma brucei;Trypanosoma brucei, UniProt Q95W15;P86925 196-762;21-416, |)
T8 sequence 1: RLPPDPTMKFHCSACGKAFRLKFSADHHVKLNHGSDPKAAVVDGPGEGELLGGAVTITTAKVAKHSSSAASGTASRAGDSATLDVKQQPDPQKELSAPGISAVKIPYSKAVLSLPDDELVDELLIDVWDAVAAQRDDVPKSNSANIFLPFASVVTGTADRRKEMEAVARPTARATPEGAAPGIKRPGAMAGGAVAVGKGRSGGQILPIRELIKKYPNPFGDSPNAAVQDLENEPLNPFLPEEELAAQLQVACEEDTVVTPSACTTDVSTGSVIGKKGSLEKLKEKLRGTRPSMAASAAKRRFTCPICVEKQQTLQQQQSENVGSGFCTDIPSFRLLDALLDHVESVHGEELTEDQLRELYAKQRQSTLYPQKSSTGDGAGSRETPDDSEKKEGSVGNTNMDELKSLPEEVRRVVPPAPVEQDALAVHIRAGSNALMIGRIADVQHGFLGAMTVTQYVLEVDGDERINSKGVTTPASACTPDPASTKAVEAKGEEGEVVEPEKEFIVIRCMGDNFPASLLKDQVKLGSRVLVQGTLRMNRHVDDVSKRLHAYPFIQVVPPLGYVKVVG
T8 sequence 2: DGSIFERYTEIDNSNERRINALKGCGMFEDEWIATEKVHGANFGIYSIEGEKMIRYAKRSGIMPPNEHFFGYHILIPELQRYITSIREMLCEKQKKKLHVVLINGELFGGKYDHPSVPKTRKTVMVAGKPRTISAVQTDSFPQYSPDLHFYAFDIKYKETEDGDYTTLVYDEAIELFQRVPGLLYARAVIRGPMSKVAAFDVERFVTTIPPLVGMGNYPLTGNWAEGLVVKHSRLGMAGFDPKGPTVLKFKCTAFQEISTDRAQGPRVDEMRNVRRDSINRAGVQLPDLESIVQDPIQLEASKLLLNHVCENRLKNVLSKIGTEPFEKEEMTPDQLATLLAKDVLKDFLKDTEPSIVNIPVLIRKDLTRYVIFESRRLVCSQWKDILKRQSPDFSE

B1: 26-mer nicked dsRNA (dsRNA)
RNA 1: AUGAGACGUAGGUU
RNA 2: UUAUCGGAGUUC
RNA 3: GAACUCCGAUAAAACCUACGUCUCAU
- binding result [1]: no binding
- binding result [2]: no binding
- binding result [3]: binds
- binding result [4]: no binding
- binding result [5]: no binding
- binding result [6]: no binding
- binding result [7]: no binding
- binding result [8]: binds
